Holding throughout (assay): BLI
Details in all cases: both partners purified

Experiment [1] concerns the target biotinylated HA0 ectodomain of A/Beijing/262/1995 (H1N1) (Influenza A virus A/Beijing/262/1995 …, UniProt Q6WG01, strain, biotin on the BirA biotinylation site).
The target of experiment [2] is biotinylated HA0 ectodomain of A/New Caledonia/20/1999 (H1N1) (Influenza A virus A/New …, UniProt Q6WG00, strain, biotin on the BirA biotinylation site).
Experiment [3] has as its target biotinylated HA0 ectodomain of A/Solomon Islands/3/2006 (H1N1) (Influenza A virus A/Solomon …, UniProt A7Y8I1, strain, biotin on the BirA biotinylation site).
The target in experiment [4] is biotinylated HA0 ectodomain of A/Perth/16/2009 (H3N2) (Influenza A virus A/Perth/16/2009 (H3N2), UniProt C6KNH7, strain, biotin on the BirA biotinylation site).
For experiment [5], the target named is biotinylated HA0 ectodomain of A/Panama/2007/1999 (H3N2) (Influenza A virus A/Panama/2007/1999 …, UniProt Q1K9M3, strain, biotin on the BirA biotinylation site).

This passage reports Kd results from article PMC5440694 (Nature Communications, 2017).

B1: wild-type C05 Fab (VVSAGW), expressed in insect cells (Fab, V domains shown)
VH: QVQLQESGGGLVQPGESLRLSCVGSGSSFGESTLSYYAVSWVRQAPGKGLEWLSIINAGGGDIDYADSVEGRFTISRDNSKETLYLQMTNLRVEDTGVYYCAKHMSMQQVVSAGWERADLVGDAFDVWGQGTMVTVSS
VL: DIQLTQSPSSLSASVGDRVTLTCQASQDIRKFLNWYQQKPGKGPKLLIYDASNLQRGVPSRFSGGGSGTDFTLIISSLQPEDVGTYYCQQYDGLPFTFGGGTKVVIK
As usually defined, the Kd is the concentration at which binding is half-saturated. With B1, the Kd amounted to 23.1 ± 0.6 nM in experiment [1]; 6.3 ± 0.1 nM in experiment [2]; 91.4 ± 0.9 nM in experiment [3]; 23.4 ± 0.1 nM in experiment [4]; 926 ± 12.1 nM in experiment [5].

B2: C05 Fab variant VTGSGW, expressed in insect cells (Fab, V domains shown)
VH: QVQLQESGGGLVQPGESLRLSCVGSGSSFGESTLSYYAVSWVRQAPGKGLEWLSIINAGGGDIDYADSVEGRFTISRDNSKETLYLQMTNLRVEDTGVYYCAKHMSMQQVTGSGWERADLVGDAFDVWGQGTMVTVSS
VL: DIQLTQSPSSLSASVGDRVTLTCQASQDIRKFLNWYQQKPGKGPKLLIYDASNLQRGVPSRFSGGGSGTDFTLIISSLQPEDVGTYYCQQYDGLPFTFGGGTKVVIK
As for B2, the Kd was 182.3 ± 0.5 nM in experiment [1]; 1.1 ± 0.2 nM in experiment [2]; 116 ± 1.9 nM in experiment [3]; 125.1 ± 1.2 nM in experiment [4]; 4340 ± 207 nM in experiment [5].

B3: C05 Fab variant VVSSGW, expressed in insect cells (Fab, V domains shown)
VH: QVQLQESGGGLVQPGESLRLSCVGSGSSFGESTLSYYAVSWVRQAPGKGLEWLSIINAGGGDIDYADSVEGRFTISRDNSKETLYLQMTNLRVEDTGVYYCAKHMSMQQVVSSGWERADLVGDAFDVWGQGTMVTVSS
VL: DIQLTQSPSSLSASVGDRVTLTCQASQDIRKFLNWYQQKPGKGPKLLIYDASNLQRGVPSRFSGGGSGTDFTLIISSLQPEDVGTYYCQQYDGLPFTFGGGTKVVIK
For the molecule B3, the Kd is 259 ± 2.8 nM in experiment [1]; 2.9 ± 0.1 nM in experiment [2]; 4.6 ± 0.6 nM in experiment [3]; 43.7 ± 0.5 nM in experiment [4]; 1290 ± 71 nM in experiment [5].
